Reference: PMC5577389

Molecular target: 6xHis-FN1, the first fibronectin type III repeat (FN1) of the neural cell adhesion molecule NCAM
Experiment: ITC

6xHis-SUMO-PBR, ST8Sia-IV polybasic region peptide (residues 75-100) fused to an N-terminal 6xHis-SUMO tag (from UniProt Q92187 75-100)
Kd: 10.9 µM
dH: 0.991 kcal/mol
stoichiometry N: 1.06
